Literature values, collected in article PMC2879597.

Biological target: hIL-10/sIL-10R1 complex (Homo sapiens) (UniProt P22301)
Sequence (P22301 19-178, chain 1 of 2): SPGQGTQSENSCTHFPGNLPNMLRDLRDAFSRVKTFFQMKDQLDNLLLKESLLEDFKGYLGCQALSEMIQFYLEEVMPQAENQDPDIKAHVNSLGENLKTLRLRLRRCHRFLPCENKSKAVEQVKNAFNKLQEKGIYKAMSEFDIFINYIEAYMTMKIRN
Sequence (Q13651 22-235, chain 2 of 2, further chain): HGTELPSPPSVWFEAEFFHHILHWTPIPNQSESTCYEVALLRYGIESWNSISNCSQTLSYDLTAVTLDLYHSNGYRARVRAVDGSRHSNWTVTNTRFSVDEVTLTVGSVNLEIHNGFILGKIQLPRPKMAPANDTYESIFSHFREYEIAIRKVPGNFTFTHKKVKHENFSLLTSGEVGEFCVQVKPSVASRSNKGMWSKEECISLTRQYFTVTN

sIL-10R2 ECD, sequence (Q08334 20-220): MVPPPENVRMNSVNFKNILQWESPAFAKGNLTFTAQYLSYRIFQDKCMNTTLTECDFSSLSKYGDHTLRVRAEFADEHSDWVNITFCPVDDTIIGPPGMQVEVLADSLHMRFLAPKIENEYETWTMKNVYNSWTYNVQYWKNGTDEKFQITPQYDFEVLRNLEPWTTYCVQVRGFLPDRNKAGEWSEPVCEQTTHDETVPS

For sIL-10R2 ECD (from UniProt Q08334), which Kd is on record?
The Kd was 250 µM.
